This is an account of results in patent US20070111265A1, “Ligands for mineralocorticoid receptor (MR) and methods for screening for or designing MR ligands” (Van Andel Research Institute, priority 2005, published 2007).

Test [1] concerns the target VP16-MR LBD (residues 727-984) (human) (UniProt P08235). Nature of the test: cell-based or functional assay.
The target of test [2] is VP16-MR LBD (K782E) (human) (UniProt P08235). Nature of the test: cell-based or functional assay.
Chain of VP16-MR LBD (K782E) (human) (P08235 727-984 K782E): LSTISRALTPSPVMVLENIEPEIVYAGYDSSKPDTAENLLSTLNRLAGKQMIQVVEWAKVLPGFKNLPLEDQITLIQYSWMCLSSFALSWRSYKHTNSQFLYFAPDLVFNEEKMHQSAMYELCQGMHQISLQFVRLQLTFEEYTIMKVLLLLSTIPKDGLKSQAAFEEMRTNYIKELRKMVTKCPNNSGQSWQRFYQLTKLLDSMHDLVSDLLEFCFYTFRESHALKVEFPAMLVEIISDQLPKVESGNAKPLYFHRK

Chain of VP16-MR LBD (residues 727-984) (human) (P08235 727-984 limits assumed): as the sequence (P08235 727-984 K782E) above, with E56K counted along it

For “Gal4-SRC1-4 (GAL4-DBD fused with SRC1 residues 1240-1441) (from UniProt P04386 1-147; Q15788 1240-1441)”, the activation of the reporter driven by the GAL4 DNA-binding sites (mammalian two hybrid, luciferase) in test [1] is 7 fold; in test [2], 1.7 fold.
